Here are results for 23 sequences from a protein production outcome set (Wang et al. 2014).

This data set in a line: label from the status in PepcDB records.
Consider “MPAFRVPRVRRAQHAEVALGAVLGVMLIGLSVLISRFHLQPVEGVTVLAQLADASLGHNWAFYVVQFATMILLALSANTSFGGLPVLLKLPARDNYLPHVFALKADRQVHRHGVLTLAGVVAALLVFSGGDTNTLVPLFAIGVFIGFTIAQVGMVRHWRAE”, for which the protein production result is “failed”.

Take “MKATLFVREFLLNPRTIGAILPSSDYLAEKMMASVCFEQAKYIIEYGPGTGVFTDKILRYRHPDTVVMIIEHNREFFCILNEKYQDEKNVIIINGSAEHIETYVKEHNIPFVDYIISGLPFASLPLHVSNAILNKARYLLGVKGKFITFQYTQTKVRLFTQFFNQMTVERVYRNLPPAFVFSCYNEKLEHHHHHH”: the protein production entry is listed as “not failed”.

Take “MEQQHPTIHTLKIETEFFKAVKERRKTFEIRKNDRNFQVGDILILEEYMNGMYLDDECEAEVIYITDYAQREGYVVLGIELH”: the protein production entry was “not failed”.

“MKFLTTNFLKCSVKACDTSNDNFPLQYDGSKCQLVQDESIEFNPEFLLNIVDRVDWPAVLTVAAELGNNALPPTKPSFPSSIQELTDDDMAILNDLHTLLLQTSIAEGEMKCRNCGHIYYIKNGIPNLLLPPHLV”: the protein production result was “failed”.

As to “PKPLKNLDGQFCEICGDQIGLTVEGDLFVACNECGFPACRPCYEYERREGTQNCPQCKTRYKRLRGSPRVEGDEDEEDID”, the protein production result was “not failed”.

“MEYGFWLPIFGGWLRNVNDESMPPTFEYAKQTAQAAEQLGFSTTLIAELNLNDIKGVSAPSLEAWTTAAALAAVTDRLEIMTAVRPGFHNPAVTAKMAANIDQLSNGRFTLNVVSAWWEEEAKQYGGVFTAHDERYDRTEEFVTILKGLWKEEEFSYKGNFYELHHTHLSPKPVQKQGIKLYAGGESKRGKEVIVNHADAYVMHGGTVEEVSVKIEDMKNRRKKVTEEPLQSFGLAAYVICRHTEEEALEEWRRITDVKDDALGYAGYQDFVSKSQLEQQVKLNDYSVSNRGLRPNLIGTPEQIAERILAFEKVGVTLLLLQFSPQLEEMKRFSEKVMPLVEAKRKELIT”: the protein production entry was “not failed”.

Take “MEPKDTTTNDAFKGFTNTACPFLPCHKGVKREFNCLFCYCPLIAYECPGPYQVYTDKNGLTRKDCTNCTLPHDGYLASWNFIQKWLERPVIWSGAAQTTPPTRRPGRAPGDGDEELEHHHHHH”: the protein production result is “not failed”.

As for “MNDNYEVFAIKYATYQQRRRNENFLPADEHDAGLMPLDYYVWLLKSPARTILVDTGFNPPEAAARNREQSRCPIEALRLLDVAPDDIDDVIITHLHYDHAGNLEKIPRARFHIQDKEVEFATGRCMCHAPLRFAYSPADVSNFIHKLYAGRVVFHDGAGVVAPGVEVLHVGGHTKGLQAVRVMTQRGWVVLASDASHFYENLEAARPFPLVADVAEMLDGFERLVRAAGSPSHVVPGHDPAVMTRYPTHPRDPQGIALLHLPTLA”, the protein production result is given as “failed”.

“MTPTPLHSITPFSMLDFPSMLSCILWFSGCNLACSYCYNPEFLKESGKIDLEGLLSFLRSRVGLLEGVVFSGGEATLFAGLPLWMEEVRSLGFKIKLDTNGTNPAMLKELLQKGYLDYVAMDFKGKEERFGMITGREFYGRFLESLEILLSSSIPFEIRTTVHSYLLQEEDIAEMAALLKERGYKGAFYLQHFVGEKETLKPLPESRRLKLDEEAIETKIIWR”: the protein production entry is “failed”.

For “FLEVNYYSRVLGMNRVMNVLLPEESDHNPNWTNDSLKDLPVLYLLHGMSGNHFDWQRKSDIERLLRQTKLAVIMPAADLAWYTNTDYGMNYFDAISQELPRKVASLFPQISTKRKKHFVAGMSMGGYGAFKLAFSSSYFSYAASLSGTLISSLNYPGFLDMEKQAYWKGIFGDLDKFSGSKNDIFELAKRQSNTGIELPKLYAWVGQQDFFYGANEKAIPRLRKMGYDVSYETNPGDHEWYYWSKYIENILQWLPINYQAEKRLS”, the protein production result was “failed”.

Consider “MPRALPRLPRPLLAVLSLSLTLGIAQADTAPLFSADGYRTTHYRSPTPQQVEGGQVVDTATLQSLLGQTPRPVLIDVYRRQWLQGRFIEDQPHSNLPGSLWLANTGDGELSPAWQDYFVRNLQKATAGHLDQPLVFYCRSDCWLSWNAVKRAKALGYNNLYWYRDGLDAWQQANLPLQPAQPVPFP”, for which the protein production entry is given as “failed”.

Consider “MGFFSRDIQTMEDLLLHGLRDIYYAEQQITKALPKMIEQATNRDLSQGLTSHLEETQKQIERLDQVFKKLGQKPSGVNCPAIDGLIKEADETAGEIADKTVLDAAIVANAQAVEHYEIARYGTLIAWAEELGHDDIVRFLTTNLNEEKAANTKLNTVALRKGVNRKAAS”, for which the protein production entry is on record as “not failed”.

On to “METGAGIGLYPLHRCKTIYLVRHAQGIHNVDGEKNYKAYMSHDYFDAELTQLGWKQVDSLRKHVHSSGLHKKIELVISSPLMRTLQTAVGVFGGEGYTDMSDVLPLMVANAGNSSRAAISSLNCPPVITEESCREHLGVHPCDQRRSISDYQFLFPAVDFSLIESEEDKLWKADVRETIEELAARGKKFLNWLWTRKEKEIAIVTHSGFLFHTLNALQNECHPDVKKEICGHFANCELRSMVIVDRSMLGSDSSVTDYPGKIPKGIDLPSDAVVDDNNIKVE”, for which the protein production result was “not failed”.

For “MKVQITNSRTEEILKVQANNENDEVSKATPGEVEESLRLIGDLKFFLATAPVNWQENQIIRRYYLNSGQGFVSCVFWNNLYYITGTDIVKCCLYRMQKFGREVVQKKKFEEGIFSDLRNLKCGIDATLEQPKSEFLSFLFRNMCLKTQKKQKVFFWFSVAHDKLFADALERDLKRESLNQPSTTKPVNEPALSFSYDSSSDKPLYDQLLQHLDSRRPSSTTKSDNSPPKLESENFKDNELVTVTNQPLLGVGLMDDDAPESPSQINDFIPQKLIIEPNTLELNGLTEETPHDLPKNTAKGRDEEDFPLDYFPVSVEYPTEENAFDPFPPQAFTPAAPSMPISYDNVNERDSMPVNSLLNRYPYQLSVAPTFPVPPSSSRQHFMTNRDFYSSNNNKEKLVSPSDPTSYMKYDEPVMDFDESRPNENCTNAKSHNSGQQTKQHQLYSNNFQQSYPNGMVPGYYPKMPYNPMGGDPLLDQAFYGADDFFFPPEGCDNNMLYPQTATSWNVLPPQAMQPAPTYVGRPYTPNYRSTPGSAMFPYMQSSNSMQWNTAVSPYSSRAPSTTAKNYPPSTFYSQNINQYPRRRTVGMKSSQGNVPTGNKQSVGKSAKISKPLHIKTSAYQKQYKINLETKARPSAGDEDSAHPDKNKEISMPTPDSNTLVVQSEEGGAHSLEVDTNRRSDKNLPDAT”, the protein production result is “failed”.

Turning to “MVFCGDDVATGVRDAITYCYRCKGRKVTLSDHEADDDNKPIGDFDYDHEVVVFEIRSRAMEKLRKKRRTGMEGLTYKFVKEYDIENEFCSVRSSFSECCMSDISIEGYMTAKTEFSRSSSLKGLELENQWKMHYVNEIKKGSVIQEFCHCQGWPFGLGRKAALLPPLPKSPAESWSWRKPTRVTPVPFV”, the protein production entry is recorded as “failed”.

On to “MRILSIIRIIGILVMCFSGTMLVPAFVALIYGDGGGKAFMQAFMLSLIAGTLLWWPCHHHKQELRSRDGFLIVVAFWLVLGSLATLPLLLFDSPHLTIASAVFEAFSGLTTTGATVMTGLDNLPKSILFYRQFLQWLGGMGIIVLAVAIIPLLGIGGTQLYRAESSGPLKDQKSLPKISEVAKALWIIYASLTVLCAIAYWLSGMNLFDAIGHSFSTISNGGFSTHDASIGYFNQASIYWVTTIFMLIGGVNFSLHISAFLALGKRNIWRNYWKDPEFRFFLTMQIIFIGIVSLSLYGYGLVSDINEAVTKGALQLTSMSMTAGYTIFDIDNLPPFIGLLLVISAVIGGCGGSTTGGLKAIRTLILWKQIDRELHSLIHPNLVQPIRIGKNRLAPRMIESIWAFFIIFILVYWGCVFAVILCGMNTFDAMGAVFATLTNAGPGLGFIHESFIGVPESAKLVFSFAMICGRLEMFSLIVLFIPSYWKK”, for which the protein production result was “failed”.

Take “MSAFINQAAACAGDHAPRSAAQEARRGLRASLPVLLGFIPFALVLGAQATQKGLSVMEVPLMTGLNFGGGSEFTAIRLWTSPPHLLLIAAMSLLVNSRHLLMGAALAPYLRHVPRRRALAALFFMCDESWALALADAQSRATGRISLGYYLGVSAGLYLTWVVFTAIGAALGPVIGDVERYGFDMAFTAVFLVLLRGMWRGLRASRPWLASLAAAALTYRLMPDGAWYVAAGALAGLACAALTVPKEARA”: the protein production entry is listed as “failed”.

Take “SDFSRNLYDIGEQLDSEDLASLKFLSLDYIPQRKQEPIKDALMLFQRLQEKRMLEESNLSFLKELLFRINRLDLLITYLNTRKEEMERELQTPGRAQISAYRVMLYQISEEVSRSELRSFKFLLQEEISKCKLDDDMNLLDIFIEMEKRVILGEGKLDILKRVCAQINKSLLKIINDYEEFSKGEELCGVMTISDSPREQDSESQTLDKVYQMKSKPRGYCLIINNHNFAKAREKVPKLHSIRDRNGTHLDAGSHSVAQAGVQWCDLGSLQPPPPWFG”: the protein production result is “not failed”.

Take “MICCLNPDCLNPLNPDGKKSCQSCGTTLVPLLRNRFRVVRVLSDEGGFGRTYLSEDKDKLNEPCVIKQLAPKFQGTWSQKKAVELFAEEAKRLQELGEHPQIPTLMAYFEQDNCLYLVQQFINGQNLLKELQQRKNYRPGEIQAILLDLLPVLKFIHDRGVIHRDIKPENIIRCRTDGRLNLIDFGSSKQLTAKVQNFGTSIGSHGYSPLEQIRDGKAYAASDLFALGATCFHLITSVSPFQLWMEHGYSWVSNWRQYLHSPLTPELDFVLDKLLQKDLKHRYTSADEVIKDITPKQPLALPAAGQTSGKIPVPQTTYLSKLPKKYSLLRSVVLLSALVLLFGFSESWFSQYLQIYSSLSARLTQNKSGQVVLAQPQKTTLRTISLANTLPDDENAFVSLAISPNGQIIASCGSDRTIKIWQLATGEDISSLKGHSRKVNAVVFSPDGKTLVSGGDDNTIKIWNLKTGKVIRTITGHSDAVHTLAISPNGKTLVSGSDDNTVKVWNLNTGRLINTLTGHTFWVRSVAISPDGVNIASGSFDKTVKIWNLETGTLTHTLAGNGETVTSIAFNPDGNTLASASRDRTIKIWKVGAGTRVRTLKGSTETITSIAFSPDGNTLASASRDQTIKLWNLETGKEIRTLEGHENTVTTVAFTPDGANLVSGSGDNTMRIWRIGN”: the protein production result is reported as “failed”.

As for “GTPVSDAEEIKVKYGCALSELVSKDDTVNVPSVGGRPSRSLQRQTLSEVIEPRYSELMGLVNQTIDSVQAKLREEGIKHH”, the protein production entry is listed as “failed”.

On to “MKKIFYISLGFISLGIGIAGIVLPVVPTTPLVLLSAFCFSRSSEKFDIWLRQTKVYKYYAADFVESRSIAPARKKSMIWQIYILMGISIYFAPLMWLKLGLLIGTIVGTYVLFYVVPDKIDE”, for which the protein production result is “failed”.

Consider “MARGDEGGENMIKIYTLGGYEEVGKNMTAVEYEGEVVIIDMGIRLDRVLIHEDVEFQKMSSKDLRKLGAIPDDRPIRDKKVVAIALSHGHLDHIGAVGKLAPHYPDVPIYGTPYTIRLAKSEIKGEEYFEVTNPLYETNYGEIVQVSENLAIEFVQVTHSIPHSSIVVIHTPEGAVVYACDYKFDNNHPYGEKPDYKRLKELGKEGVKVLIAESTRVAEETKTPSEAVAKMLLEDFFLYEGMEADGLIATTFASHIARLQELIEIANKMGRQAIFIGRSLAKYTGIAKQLGLIKMKGSRVLRSPNAVSKVLKEVSQARENYLLIVTGHQGEPGAILTRMANGELYDIGPRDTVVFSAGVIPNPLNIAQRYALETKLKMRGVRMIKDLHVSGHASKEDHRYLIRMLNPEYIVPAHGEFRMLTHYAELAEEEGYRIGKDVFISRNGHIVEII”, for which the protein production result is given as “failed”.

On to “MQENKKIDENIDDFLKIVVDLNHIQIEVRDEVQAILLLSSLPSRYDGLVETMKYSNSREKLRLNDVMVAARDKEREMSQNNRLIAEGHYARRRPVGKNNNQGNKGKNRSWSKSADGKRVCWICGKEKHFNEQCYKWLERNKPK”, for which the protein production result is reported as “failed”.
